Measurements as given in patent US20070086998A1 (GPC BIOTECH, published 2007).
Numbering of substitutions follows the chain as printed.

T1: HLA-DR on PRIESS cells (DRA*0101/DRB1*0401) (human, UniProt P01903 26-254; P01911 30-266)
T1 MHC II alpha: not shown
T1 MHC II beta: not shown

T2: human MHC class II DR protein (DRA*0101/DRB1*0401), purified (human, UniProt P01903 26-254; P01911 30-266, limits assumed)
T2 construct: mature; Detergent-solubilised protein purified from PRIESS cell lysate on an LB3.1 column; also called HLA-DR protein
T2 MHC II alpha: not shown
T2 MHC II beta: not shown

B1: MS-GPC-8-10-57 (IgG4 form) (antibody, V domains shown)
VH: QVELKESGPALVKPTQTLTLTCTFSGFSLSTSGVGVGWIRQPPGKALEWLALIDWDDDKYYSTSLKTRLTISKDTSKNQVVLTMTNMDPVDTATYYCARSPRYRGAFDYWGQGTLVTVSS
VL: DIVLTQPPSVSGAPGQRVTISCSGSESNIGNNYVQWYQQLPGTAPKLLIYDNNQRPSGVPDRFSGSKSGTSASLAITGLQSEDEADYYCQSYDLIRHVFGGGTKLTVLG
B2: MS-GPC-8-27-41 (IgG4 form) (antibody, V domains shown)
VH: B1 VH
VL: B1 VL with L94M, I95N, R96V
B3: MS-GPC-8-27-41 (Fab) (Fab, V domains shown)
VH: B1 VH with E3Q
VL: B1 VL with L94M, I95N, R96V
B4: MS-GPC-8-10-57 (Fab) (Fab, V domains shown)
VH: B1 VH with E3Q
VL: B1 VL
B5: MS-GPC-8-6-2 (Fab) (Fab, V domains shown)
VH: B1 VH with E3Q
VL: B1 VL with N31S, Q35H, L94Y, I95D, R96H, H97Y
B6: MS-GPC-8-Fab (Fab, V domains shown)
VH: B1 VH with E3Q
VL: B1 VL with E26S, N31S, Q35S, L94M, I95P, R96Q, H97A
B7: MS-GPC-1-Fab (Fab, V domains shown)
VH: B1 VH with E3Q, S100Q, P101Y, R102G, Y103H, A106G, Y109H
VL: B1 VL with E26S, N31S, Q35S, L94F, I95N, R96E, H97S
B8: MS-GPC-10-Fab (Fab, V domains shown)
VH: B1 VH with E3Q, S100Q, P101L, R102H, A106G, Y109L
VL: B1 VL with E26S, N31S, Q35S, I95T, R96M, H97G
B9: MS-GPC-8-17 (Fab) (Fab, V domains shown)
VH: B1 VH with E3Q
VL: B1 VL with E26S, N31S, Q35S, L94F, I95S, R96V, H97Y
B10: MS-GPC-8-6-13 (IgG4 form) (antibody, V domains shown)
VH: B1 VH
VL: B1 VL with N31A, Q35T, L94Y, I95D, R96H, H97Y
B11: MS-GPC-8-6-47 (Fab) (Fab, V domains shown)
VH: B1 VH with E3Q
VL: B1 VL with N31S, Q35S, L94Y, I95D, R96H, H97Y
B12: MS-GPC-8-6 (IgG form) (antibody, V domains shown)
VH: B1 VH
VL: B1 VL with E26S, N31S, Q35S, L94Y, I95D, R96H, H97Y
B13: MS-GPC-8-6-2 (IgG form) (antibody, V domains shown)
VH: B1 VH
VL: B1 VL with N31S, Q35H, L94Y, I95D, R96H, H97Y
B14: MS-GPC-8-27-10 (Fab) (Fab, V domains shown)
VH: B1 VH with E3Q
VL: B1 VL with N31A, Q35N, L94M, I95N, R96V
B15: MS-GPC-8-6-27 (Fab) (Fab, V domains shown)
VH: B1 VH with E3Q
VL: B1 VL with E26D, N31A, Q35T, L94Y, I95D, R96H, H97Y
B16: MS-GPC-8-6 (Fab) (Fab, V domains shown)
VH: B1 VH with E3Q
VL: B1 VL with E26S, N31S, Q35S, L94Y, I95D, R96H, H97Y
B17: MS-GPC-8-6-19 (Fab) (Fab, V domains shown)
VH: B1 VH with E3Q
VL: B1 VL with N31S, Q35A, L94Y, I95D, R96H, H97Y
B18: MS-GPC-8-27-7 (Fab) (Fab, V domains shown)
VH: B1 VH with E3Q
VL: B1 VL with Q35G, L94M, I95N, R96V
B19: MS-GPC-8-6-13 (Fab) (Fab, V domains shown)
VH: B1 VH with E3Q
VL: B1 VL with N31A, Q35T, L94Y, I95D, R96H, H97Y
B20: L243 (antibody, V domains shown)
VH: QIQLVQSGPELKKPGETVKISCKASGFTFTNYGMNWVKQAPGKGLKWMGWINTYTREPTYADDFKGRFAFSLETSASTAYLQINNLKNEDTAKYFCARDITAVVPTGFDYWGQGTTLTVSS
VL: DIQMTQSPASLSVSVGETVTITCRASENIYSNLAWYRQKQGKSPQLLVFAASNLADGVPSRFSGSGSGTQYSLKINSLQSEDFGDYYCQHFWTTPWAFGGGTNLEIK

biological target: HLA-DR on LG-2 cells (human); assay: cell-based or functional assay

Binder | EC50 of cell killing for bivalent agent; LG2; IgG4 [nM] | EC50 of cell killing for bivalent agent; LG2; Fab cross-linked with anti-FLAG M2 [nM]
B1 | 1 | 
B2 | 1.23 | 
B3 |  | 7.2
B4 |  | 7.2

Biological target: T1, HLA-DR on PRIESS cells …
Assay: cell-based or functional assay

Binder | EC50 of cell killing for bivalent agent; PRIESS; Fab cross-linked with anti-FLAG M2 [nM] | EC50 of cell killing for bivalent agent; PRIESS; IgG4 [nM]
B5 | 8 | 
B1 |  | 1.1
B2 |  | 1.1
B3 | 7.7 | 
B6 | 31 | 
B7 | 54 | 
B8 | 33 | 
B9 | 16 | 

biological target: HLA-DR on LG-2 cells (human); assay: cell-based or functional assay; remark: another data set of the same source

Binder | % Killing by mAb; LG-2 (DR 1,1); 50 nM, 4 h [%]
B1 | 88
B2 | 87
B10 | 82

Biological target: T1, HLA-DR on PRIESS cells …
Assay: cell-based or functional assay
Remark: another data set of the same source

Binder | % Killing by mAb; PRIESS (DR 4,4); 50 nM, 4 h [%]
B1 | 93
B2 | 88
B10 | 74

biological target: T3, chimeric DR-IE (human-mouse chimeric MHC class II molecule) (human; murine); assay: cell-based or functional assay

Binder | IC50, IL-2 secretion of T-Hyb 1 cells stimulated by 0401-IE transgenic APC; Fab | Maximum inhibition(%), IL-2 secretion of T-Hyb 1 cells; Fab [%] | IC50, IL-2 secretion of T-Hyb 1 cells stimulated by 0401-IE transgenic APC; IgG [nM] | Maximum inhibition(%), IL-2 secretion of T-Hyb 1 cells; IgG [%]
B11 | 2.6 nM (Fab concentration/2) | 100 |  | 
B12 |  |  | 6.7 | 100
B13 |  |  | 3.6 | 100
B5 | 4.7 nM (Fab concentration/2) | 100 |  | 
B14 | 7.3 nM (Fab concentration/2) | 100 |  | 
B1 |  |  | 0.31 | 100
B2 |  |  | 0.28 | 100
B3 | 3.6 nM (Fab concentration/2) | 100 |  | 
B15 | 3 nM (Fab concentration/2) | 100 |  | 
B4 | 2.9 nM (Fab concentration/2) | 100 |  | 
B6 | 110 nM (Fab concentration/2) | 100 |  | 
B16 | 20 nM (Fab concentration/2) | 100 |  | 
B10 |  |  | 0.42 | 100
B17 | 5.3 nM (Fab concentration/2) | 100 |  | 
B18 | 5.9 nM (Fab concentration/2) | 100 |  | 
B19 | 2.1 nM (Fab concentration/2) | 100 |  | 

Biological target: T2, human MHC class II DR protein …
Assay: not stated (Z. A. Nagy, unpublished)

Binder | Kd [nM]
B20 | 10

biological target: T3, chimeric DR-IE (human-mouse chimeric …); assay: cell-based or functional assay; remark: another data set of the same source

Binder | IC50 value for inhibition of T cell proliferation (lymph node cells of chimeric 0401-IE transgenic mice, ovalbumin) [nM]
B1 | 11
B2 | 20

Biological target: T1, HLA-DR on PRIESS cells …
Assay: cell-based or functional assay
Remark: another data set of the same source

Binder | maximum killing capacity against PRIESS cells, cross-linked bivalent fragment [%]
B6 | 84
